Test [1] deals with HLA-A*01:01. Description: IEDB peptide-MHC binding, purified MHC/competitive/radioactivity; filed as Kd, often an IC50 or EC50 that approximates it; ≥ and ≤ were set here for values at or beyond the usual limits of such assays.
A further test has as its target HLA-A*26:01. The test is described as above.
The next test deals with HLA-A*29:02. The description is as above.
In another test the target is HLA-A*30:02. The test is described as above.
In a further test the target is HLA-A*32:01. The test is described as above.
The target in a further test is HLA-A*30:01. Described as above.
The target of test [2] is HLA-A*31:01. Described as above. As to conditions: source organism: Vaccinia virus WR.
The target in another test is HLA-A*11:01. The test is described as above. As to conditions: source organism: Vaccinia virus WR.
The target of test [3] is HLA-A*03:01. Described as above. As to conditions: source organism: Vaccinia virus WR.
For a further test, the target named is HLA-A*68:01. Described as above.
The target of another test is HLA-A*33:01. Described as above.
Another test concerns the target HLA-B*15:01. Described as above.
The target of a further test is HLA-B*08:01. The test is described as above. As to conditions: source organism: Vaccinia virus WR.
The target in the next test is HLA-A*24:02. The experiment in a line: IEDB peptide-MHC binding, purified MHC/competitive/fluorescence; ≥ and ≤ were set here for values at or beyond the usual limits of such assays.
The target in test [4] is HLA-A*02:01. The test is described as above.
Test [5] deals with HLA-A*02:01. The experiment in a line: IEDB peptide-MHC binding, purified MHC/competitive/fluorescence; filed as Kd, often an IC50 or EC50 that approximates it; ≥ and ≤ were set here for values at or beyond the usual limits of such assays.
Another test deals with HLA-A*02:06. The experiment in a line: IEDB peptide-MHC binding, purified MHC/competitive/radioactivity; filed as Kd, often an IC50 or EC50 that approximates it; ≥ and ≤ were set here for values at or beyond the usual limits of such assays. As to conditions: source organism: Dengue virus 1 Brazil/97-11/1997.
In test [6] the target is HLA-A*01:01. Description: IEDB peptide-MHC binding, purified MHC/direct/fluorescence; filed as Kd, often an IC50 or EC50 that approximates it; ≥ and ≤ were set here for values at or beyond the usual limits of such assays. As to conditions: source organism: Influenza A virus (A/Moscow/343/2003(H3N2)).
For test [7], the target named is HLA-A*31:01. The description is as above.
Test [8] deals with HLA-A*03:01. The description is as above. As to conditions: source organism: Rickettsia prowazekii.
For test [9], the target named is HLA-A*02:01. Description: IEDB peptide-MHC binding, purified MHC/competitive/radioactivity; filed as Kd, often an IC50 or EC50 that approximates it; ≥ and ≤ were set here for values at or beyond the usual limits of such assays.
A further test concerns the target HLA-A*02:03. The test is described as above. As to conditions: source organism: Dengue virus 3 Martinique/1243/1999.
The mark [10] stands for this setting: source organism: Mammarenavirus guanaritoense.
The mark [11] stands for this setting: source organism: Vaccinia virus WR.
[12] abbreviates: source organism: Zaire ebolavirus.
Where [13] appears, read: source organism: Vaccinia virus.
The mark [14] stands for this setting: source organism: Sudan ebolavirus.
Where [15] appears, read: source organism: Dengue virus 2 Jamaica/1409/1983.
[16] abbreviates: source organism: Mammarenavirus whitewaterense.
[17] abbreviates: source organism: Dengue virus 4 Philippines/H241/1956.
Where [18] appears, read: source organism: SARS coronavirus Tor2.

One may read the Kd as a measure of binding affinity in units of concentration. Turning to ELLSYCVSLF, the Kd in the test with HLA-A*01:01 [1] (setting [10]) was found to be 261 nM; in the test with HLA-A*26:01 (setting [10]) it was 99.3 nM; with HLA-A*29:02 (setting [10]), 5800 nM; with HLA-A*30:02 (setting [10]), 9750 nM; in the test with HLA-A*32:01 (setting [10]) it was 2640 nM; in the test with HLA-A*30:01 (setting [10]), 1060 nM.
Take RIRQQLPLY: the Kd is 773 nM with HLA-A*31:01 [2]; 553 nM with HLA-A*11:01; 21.5 nM with HLA-A*03:01 [3]; 1190 nM in the test with HLA-A*68:01 (setting [11]); no less than 77700 nM in the test with HLA-A*33:01 (setting [11]); 12.8 nM in the test with HLA-A*30:01 (setting [11]).
YIKFIFLQM: the Kd amounted to 1350 nM in the test with HLA-B*15:01 (setting [11]) and 8.58 nM in the test with HLA-B*08:01.
As a reminder, the IC50 is the point on the concentration scale where inhibition reaches its midpoint. For the sequence IHQGMHMVA, the values for the IC50 with HLA-A*24:02 (setting [12]) and with HLA-A*02:01 [4] (setting [12]) were no less than 185000 nM and no less than 84700 nM, respectively.
IWKVNPEID registered an IC50 in the test with HLA-A*24:02 (setting [12]) of 62100 nM.
Take DRDINPIVK: the IC50 with HLA-A*24:02 (setting [13]) worked out at 33500 nM.
With ATGKCNPNL, the IC50 with HLA-A*24:02 (setting [14]) was no less than 142000 nM; with HLA-A*02:01 [4] (setting [14]) it was 12300 nM.
KLVVVAVGV had a Kd with HLA-A*02:01 [5] (source organism: Schaalia radingae) of 10 nM.
As to RFTPQFLLQ, the IC50 with HLA-A*24:02 (setting [12]) amounted to 4080 nM.
Turning to AQMWQLMYF, the Kd came out at 9.54 nM with HLA-A*02:06 and 1.58 nM with HLA-B*15:01 (source organism: Dengue virus 1 Brazil/97-11/1997).
As to HTKIDSMFL, the IC50 in the test with HLA-A*02:01 [4] (source organism: Variola virus) was 53700 nM. Besides, the Kd with HLA-A*30:01 (setting [11]) was determined as 1.46 nM.
Take AWQSVGHMM: the IC50 with HLA-A*24:02 (setting [12]) is 34700 nM; in the test with HLA-A*02:01 [4] (setting [12]) it was no less than 180000 nM.
As for DTKIDLWSY, the dissociation constant Kd with HLA-A*01:01 [6] was no less than 20000 nM.
As for HTAEAGGRAY, the dissociation constant (Kd) with HLA-A*01:01 [1] (setting [15]) was no less than 70400 nM; in the test with HLA-A*26:01 (setting [15]) it was 24.6 nM; with HLA-B*15:01 (setting [15]), 115 nM; with HLA-A*30:02 (setting [15]) it was 25.1 nM.
With KWLKIITPK, the Kd is 217 nM with HLA-A*31:01 [7] (source organism: Rickettsia prowazekii) and no less than 20000 nM in the test with HLA-A*03:01 [8].
Consider LMNKENAEM, for which the Kd in the test with HLA-B*15:01 (setting [11]) is 7.7 nM.
LDRPHTPQF showed an IC50 with HLA-A*24:02 (setting [14]) of 23800 nM.
For YVNHTGFNV, the Kd was 5880 nM in the test with HLA-A*01:01 [1] (setting [16]); no less than 53600 nM with HLA-A*26:01 (setting [16]); 2470 nM in the test with HLA-A*29:02 (setting [16]); no less than 76900 nM with HLA-A*30:02 (setting [16]); no less than 77800 nM with HLA-A*32:01 (setting [16]); 1240 nM with HLA-A*30:01 (setting [16]).
Consider NLNVTTQSI, for which the half-inhibitory concentration (IC50) was 11100 nM in the test with HLA-A*24:02 (setting [13]) and 44700 nM with HLA-A*02:01 [4] (setting [13]).
For GLLEAGNSL, the Kd with HLA-A*02:01 [5] (setting [11]) came out at 3.2 nM.
On to YLKEEQDQQY, for which the results for the Kd with HLA-A*01:01 [1] (setting [17]) and with HLA-B*15:01 (setting [17]) were 15600 nM and 7.59 nM, respectively.
As for GQITWRDMAH, the equilibrium dissociation constant (Kd) in the test with HLA-B*15:01 (source organism: Dengue virus 3 Martinique/1243/1999) was 153 nM.
Take VLENFTILLV: the Kd with HLA-A*02:01 [9] (source organism: Homo sapiens) came to 527 nM.
As for GLFGKGSLV, the Kd in the test with HLA-A*02:01 [9] (source organism: dengue virus type 3) was determined as 2.9 nM; with HLA-A*02:03, 2.92 nM.
On to YIRFRKNHI, for which the Kd with HLA-B*15:01 (setting [11]) stood at 1010 nM; with HLA-B*08:01 it was 1.44 nM.
Consider ALRANSAVK, for which the results for the Kd in the test with HLA-A*31:01 [7] (source organism: SARS-CoV1), in the test with HLA-A*68:01 (setting [18]) and in the test with HLA-A*33:01 (setting [18]) were 479 nM, no less than 26400 nM and no less than 77700 nM, respectively.

These data come from the Immune Epitope Database (IEDB).
